Two molecules from PMC4426023 (Cell reports, 2015) can be followed below.

The target of assay [1] is DOT1L Site 1 peptide, fluorescently tagged (UniProt Q8TEK3). Description: fluorescence polarisation.
Assay [2] deals with DOT1L Site 2 peptide, fluorescently tagged (UniProt Q8TEK3). In words: fluorescence polarisation.
The target in assay [3] is T1, DOT1L repeat motif (Sites 2 and 3, aa. 863–900) (UniProt Q8TEK3 863-900).
T1 chain (looked up): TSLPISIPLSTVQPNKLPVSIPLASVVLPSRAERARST
In words: SEC.

As usually defined, the Kd is the constant that tells how readily two partners part at equilibrium. Lower therefore signals a tighter complex. Broadly, the stoichiometry N is a count of units in the complex or per binding partner.

Chain of DOT1L Site 1 peptide, fluorescently tagged (Q8TEK3 628-653): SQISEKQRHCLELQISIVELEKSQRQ

The molecule MBP-AF9 AHD (WT) (domain or fragment) returned a Kd in assay [1] of more than 2 µM. In assay [2], this molecule had a fold weaker affinity than DOT1L (Site 3) of 17 fold.

B1: AF9 ANC1 homology domain (aa. 499–568) (domain or fragment, UniProt P42568 499-568, looked up)
chain: CDKAYLDELVELHRRLMTLRERHILQQIVNLIEETGHFHITNTTFDFDLCSLDKTTVRKLQSYLETSGTS
Take B1: the “stoichiometry N” value in assay [3] stood at 2.
